Earlier results, collected in paper doi:10.1101/2024.07.26.605324.
“And” between values parts separate entries of the source, which are not always exact repeats. Equal values may be shown once.

Molecular target: His27 (position 27, …)
Assay: NMR
Details: 243–263 K; membrane-bound tetramer, wild type with both His19 and His27 tetrads

MLEPFQILSICSFILSALHFIAWTIGHLNQIKR [Influenza B virus matrix protein 2 (BM2) proton channel (Influenza B virus)]
pKa: 5.9±0.1 and 5.8±0.1
